The labels stand for the following.
B1: Tumor protein p73 (Homo sapiens), O15350-1 (parent)
chain: MAQSTATSPDGGTTFEHLWSSLEPDSTYFDLPQSSRGNNEVVGGTDSSMDVFHLEGMTTSVMAQFNLLSSTMDQMSSRAASASPYTPEHAASVPTHSPYAQPSSTFDTMSPAPVIPSNTDYPGPHHFEVTFQQSSTAKSATWTYSPLLKKLYCQIAKTCPIQIKVSTPPPPGTAIRAMPVYKKAEHVTDVVKRCPNHELGRDFNEGQSAPASHLIRVEGNNLSQYVDDPVTGRQSVVVPYEPPQVGTEFTTILYNFMCNSSCVGGMNRRPILIIITLEMRDGQVLGRRSFEGRICACPGRDRKADEDHYREQQALNESSAKNGAASKRAFKQSPPAVPALGAGVKKRRHGDEDTYYLQVRGRENFEILMKLKESLELMELVPQPLVDSYRQQQQLLQRPSHLQPPSYGPVLSPMNKVHGGMNKLPSVNQLVGQPPPHSSAATPNLGPVGPGMLNNHGHAVPANGEMSSSHSAQSMVSGSHCTPPPPYHADPSLVSFLTGLGCPNCIEYFTSQGLQSIYHLQNLTIEDLGALKIPEQYRMTIWRGLQDLKQGHDYSTAQQLLRSSNAATISIGGSGELQRQRVMEAVHFRVRHTITIPNRGGPGGGPDEWADFGFDLPDCKARKQPIKEEFTEAEIH

This experiment covers variants of B1. The conditions noted are these: with itch_human ITCH.
Consider Y487F, for which the “effect of a mutation on the interaction” value is reported as “disrupting interaction”.

Source of the values: IntAct's records for PubMed 15678106.
